According to US7727960B2, “C5a receptor antagonists” (Jerini AG, priority 2003, dated 2010):
Starred links: 1 amine or outer side, 2 acyl side, 3 side chain; linkers in the order of their positions; H or OH if unused. Positions of bridges follow the written chain, without caps; N, C: chain ends. Non-standard residues stand in square brackets, D forms with d. No end group written: not given here. *: point of attachment. Ecp = His(tau-4-methoxybenzyl), COc1ccc(Cn2cnc(C[C@H](N[*:1])C(=O)[*:2])c2)cc1; Edn = Cys(CH2-CH2-4-pyridyl), O=C([C@H](CSCCc1ccncc1)N[*:1])[*:2]; Fck = HO-CH2-(CHOH)4-C=N-O-CH2-CO- (oxime-linked sugar acyl cap); Ebo = Cys(4-picolyl), O=C([C@H](CSCc1ccncc1)N[*:1])[*:2]; Ebu = Cys(3-picolyl), O=C([C@H](CSCc1cccnc1)N[*:1])[*:2]; Ecg = Cys(2-picolyl), O=C([C@H](CSCc1ccccn1)N[*:1])[*:2]; Phe(F5) = N[C@@H](Cc1c(F)c(F)c(F)c(F)c1F)C(=O)O; Phe(4-tBu) = CC(C)(C)c1ccc(C[C@H](N)C(=O)O)cc1; Fbo = morpholine-4-carbonyl, O=C(N1CCOCC1)*; 1Nal = N[C@@H](Cc1cccc2ccccc12)C(=O)O; 2Nal = N[C@@H](Cc1ccc2ccccc2c1)C(=O)O; d(hLeu) = CC(C)CC[C@@H](N)C(=O)O; hCit = NC(=O)NCCCC[C@H](N)C(=O)O; αMeF = C[C@](N)(Cc1ccccc1)C(=O)O; 4Pal = N[C@@H](Cc1ccncc1)C(=O)O; 2Thi = N[C@@H](Cc1cccs1)C(=O)O; Cha = N[C@@H](CC1CCCCC1)C(=O)O; dCha = N[C@H](CC1CCCCC1)C(=O)O; dChg = N[C@@H](C(=O)O)C1CCCCC1; Phg = N[C@H](C(=O)O)c1ccccc1; Nle = CCCC[C@H](N)C(=O)O; Orn = NCCC[C@H](N)C(=O)O; Aze = O=C(O)[C@@H]1CCN1; Dab = NCC[C@H](N)C(=O)O; Ecf = Cys(O-3-picolyl); Fbn = not defined here

T1: human C5aR (CD88) (human, UniProt P21730 1-350)
T1 sequence (looked up): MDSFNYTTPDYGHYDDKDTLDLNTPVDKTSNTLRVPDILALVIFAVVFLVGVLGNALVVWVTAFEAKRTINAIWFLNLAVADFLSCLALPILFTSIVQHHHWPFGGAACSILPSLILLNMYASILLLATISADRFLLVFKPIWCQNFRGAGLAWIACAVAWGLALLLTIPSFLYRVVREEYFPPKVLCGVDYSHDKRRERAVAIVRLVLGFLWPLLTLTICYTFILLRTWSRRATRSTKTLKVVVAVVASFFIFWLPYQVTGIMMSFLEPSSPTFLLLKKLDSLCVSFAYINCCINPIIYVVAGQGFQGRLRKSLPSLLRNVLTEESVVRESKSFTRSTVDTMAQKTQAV

B1: Fck-Phe-[Orn-Pro-cha-Trp-Nle] (peptide)
peptide: Fck-F[Orn]P[dCha]W[Nle]
modifications: lactam 2-C (inferred)
B2: Fbn-Phe-[Orn-Pro-cha-Trp-Nle] (peptide)
peptide: Fbn-F[Orn]P[dCha]W[Nle]
modifications: lactam 2-C; reading uncertain; also: printed as Fbn-Phe-[Orn-Pro-cha-Trp-Nle]
B3: Ac-Phe-Orn-Pro-hch-Trp-Phe-OH (peptide)
peptide: Ac-F[Orn]P[dHch]WF-OH
B4: Ac-Phe-[Orn-Pro-cha-Trp-Hci] (peptide)
peptide: Ac-F[Orn]P[dCha]W[hCit]
modifications: lactam (positions not given here); not fully specified (bridges); printed as Ac-Phe-[Orn-Pro-cha-Trp-Hci]
B5: Ac-Phe-[Orn-Pro-cha-Trp-Arg(Me2)] (peptide)
peptide: FXPXWR
modifications: not fully specified; Ac-; Orn2; cha4 (D); Arg(Me2)6; cyclic [2-6]
B6: Ac-Phe-[Orn-Pro-cha-Trp-Edn] (peptide)
peptide: Ac-F[Orn]P[dCha]W[Edn]
modifications: lactam (positions not given here); not fully specified (bridges); printed as Ac-Phe-[Orn-Pro-cha-Trp-Edn]
B7: Ac-Phe-[Orn-Pro-cha-Trp-Ecg] (peptide)
peptide: Ac-F[Orn]P[dCha]W[Ecg]
modifications: lactam (positions not given here); not fully specified (bridges); printed as Ac-Phe-[Orn-Pro-cha-Trp-Ecg]
B8: Ac-Phe-[Orn-Pro-cha-Trp-Ecf] (peptide)
peptide: Ac-F[Orn]P[dCha]W[Ecf]
modifications: lactam (positions not given here); not fully specified (bridges); printed as Ac-Phe-[Orn-Pro-cha-Trp-Ecf]
B9: Ac-Phe-[Orn-Pro-cha-Trp-Ebu] (peptide)
peptide: Ac-F[Orn]P[dCha]W[Ebu]
modifications: lactam (positions not given here); not fully specified (bridges); printed as Ac-Phe-[Orn-Pro-cha-Trp-Ebu]
B10: Ac-Phe-[Orn-Pro-cha-Trp-Phe(4-Amidin)] (peptide)
peptide: Ac-F[Orn]P[dCha]W[Phe(4-Amidin)]
modifications: lactam (positions not given here); not fully specified (bridges); printed as Ac-Phe-[Orn-Pro-cha-Trp-Phe(4-Amidin)]
B11: Fbo-Phe-[Orn-Pro-cha-Trp-Nle] (peptide)
peptide: Fbo-F[Orn]P[dCha]W[Nle]
modifications: lactam 2-C (inferred)
B12: Fck-[Phe-Orn-Pro-cha-Trp-Nle] (peptide)
peptide: Fck-F[Orn]P[dCha]W[Nle]
modifications: bridge (positions not given here); not fully specified; printed as Fck-[Phe-Orn-Pro-cha-Trp-Nle]; also: cyclic [1-6], linkage not given here
B13: H-Amf-[Orn-Aze-hle-Pff-Nle] (peptide)
peptide: H-[αMeF][Orn][Aze][d(hLeu)][Phe(F5)][Nle]
modifications: lactam 2-C
SMILES: CCCC[C@@H]1NC(=O)[C@H](Cc2c(F)c(F)c(F)c(F)c2F)NC(=O)[C@@H](CCC(C)C)NC(=O)[C@@H]2CCN2C(=O)[C@@H](NC(=O)[C@@](C)(N)Cc2ccccc2)CCCNC1=O
B14: Ac-Phe-[Orn-Pro-cha-Trp-Ebo] (peptide)
peptide: Ac-F[Orn]P[dCha]W[Ebo]
modifications: lactam (positions not given here); not fully specified (bridges); printed as Ac-Phe-[Orn-Pro-cha-Trp-Ebo]
B15: H-Phe-[Orn-Ser-cha-Trp-Phe] (peptide)
peptide: H-F[Orn]S[dCha]WF
modifications: lactam 2-C
SMILES: N[C@@H](Cc1ccccc1)C(=O)N[C@H]1CCCNC(=O)[C@H](Cc2ccccc2)NC(=O)[C@H](Cc2c[nH]c3ccccc23)NC(=O)[C@@H](CC2CCCCC2)NC(=O)[C@H](CO)NC1=O
B16: Ph2-CH-CH2-CO-Orn-Pro-cha-Trp-Phe-NH2 (peptide)
peptide: {Ph2‑CH‑CH2‑CO}-[Orn]P[dCha]WF-NH2
B17: Ac-Phe-Orn-Pro-cha-Trp-NH-CH2-CH2-Ph (peptide)
peptide: Ac-F[Orn]P[dCha]W-{NH‑CH2‑CH2‑Ph}
B18: H-Phe-[Orn-Pro-hle-Trp-Nle] (peptide)
peptide: H-F[Orn]P[d(hLeu)]W[Nle]
modifications: lactam 2-C
B19: Ac-Phe-[Orn-Pro-cha-Trp-Dab] (peptide)
peptide: Ac-F[Orn]P[dCha]W[Dab]
modifications: lactam (positions not given here); not fully specified (bridges); printed as Ac-Phe-[Orn-Pro-cha-Trp-Dab]
B20: Ac-Phe-[Orn-Pro-cha-Trp-Eew] (peptide)
peptide: FXPXWX
modifications: not fully specified; Ac-; Orn2; cha4 (D); Eew6; cyclic [2-6]
B21: Ac-Phe-Orn-Pro-cha-Trp-2Ni-NH2 (peptide)
peptide: Ac-F[Orn]P[dCha]W[2Nal]-NH2
B22: Ac-Phe-Orn-Pro-cha-Trp-Thi-NH2 (peptide)
peptide: Ac-F[Orn]P[dCha]W[2Thi]-NH2
B23: Ac-Phe-[Orn-Pro-cha-Trp-Ppa] (peptide)
peptide: Ac-F[Orn]P[dCha]W[4Pal]
modifications: lactam (positions not given here); not fully specified (bridges); printed as Ac-Phe-[Orn-Pro-cha-Trp-Ppa]
B24: Ac-Phe-[Orn-Pro-cha-Trp-Ecp] (peptide)
peptide: Ac-F[Orn]P[dCha]W[Ecp]
modifications: lactam (positions not given here); not fully specified (bridges); printed as Ac-Phe-[Orn-Pro-cha-Trp-Ecp]
B25: Ac-Phe-Orn-Pro-cha-Trp-1Ni-NH2 (peptide)
peptide: Ac-F[Orn]P[dCha]W[1Nal]-NH2
B26: Ac-Phe-Orn-Pro-cha-Trp-Eap-NH2 (peptide)
peptide: Ac-F[Orn]P[dCha]W[Phe(4-tBu)]-NH2
B27: Ac-Phe-Orn-Pro-cha-Trp-Cha-NH2 (peptide)
peptide: Ac-F[Orn]P[dCha]W[Cha]-NH2
B28: Ac-Phe-Orn-Ser-cha-Trp-Phe-OH (peptide)
peptide: Ac-F[Orn]S[dCha]WF-OH
SMILES: CC(=O)N[C@@H](Cc1ccccc1)C(=O)N[C@@H](CCCN)C(=O)N[C@@H](CO)C(=O)N[C@H](CC1CCCCC1)C(=O)N[C@@H](Cc1c[nH]c2ccccc12)C(=O)N[C@@H](Cc1ccccc1)C(=O)O
B29: H-Phe-[Orn-Pro-cha-Trp-Nle] (peptide)
peptide: H-F[Orn]P[dCha]W[Nle]
modifications: lactam 2-C
B30: Ac-Phe-Orn-Pro-chg-Trp-Phe-OH (peptide)
peptide: Ac-F[Orn]P[dChg]WF-OH
B31: Ac-Phe-Orn-Pro-cha-Trp-Phg-NH2 (peptide)
peptide: Ac-F[Orn]P[dCha]W[Phg]-NH2

The molecules below were run against T1, human C5aR (CD88) (assay: cell-based or functional assay).

| Molecule | IC50 activity group, enzyme release assay | EC50, agonistic activity, enzyme release assay |
| --- | --- | --- |
| Ac-Phe-Orn-Aze-cha-Pff-Phe-NH2 (peptide) | < 200 nM |  |
| Ac-Phe-Ffa-Aze-cha-Bta-Phe-NH2 (peptide) | < 50 nM |  |
| Ac-Phe-[Orn-Hyp(CONH-CH2CH(OH)-CH2OH)-cha-Trp-Nle] (peptide) | < 200 nM |  |
| Ac-Ser-Phe-Orn-Aze-cha-Bta-Phe-NH2 (peptide) | < 20 nM |  |
| H-Phe-[Orn-Hyp-hle-Pff-Phe] (peptide) | < 200 nM |  |
| Ac-Phe-Cit-Pro-cha-Bta-Phe-NH2 (peptide) | < 200 nM |  |
| Ac-Phe-Cit-Pro-hle-Bta-Phe-NH2 (peptide) | < 50 nM |  |
| Ac-Thi-Orn-Pip-cha-Bta-Phe-NH2 (peptide) | < 50 nM | > 100000 nM |
| FH2C-CO-Phe-Orn-Pro-cha-Bta-Phe-NH2 (peptide) | < 50 nM |  |
| H-Phe-[Orn-Hyp-hle-Trp-Nva] (peptide) | < 200 nM |  |
| H-Phe-[Orn-Ser-hle-Pff-Leu] (peptide) | < 200 nM |  |

Target: T1, human C5aR (CD88)
Assay: cell-based or functional assay
Remark: another data set of the same source

| Molecule | IC50 activity group, enzyme release assay |
| --- | --- |
| B1 | ≤ 200 nM |
| B2 | ≤ 200 nM |
| B3 | ≤ 200 nM |
| B4 | ≤ 2000 nM |
| B5 | ≤ 200 nM |
| B6 | ≤ 2000 nM |
| B7 | ≤ 2000 nM |
| B8 | ≤ 2000 nM |
| B9 | ≤ 2000 nM |
| B10 | ≤ 2000 nM |
| B11 | ≤ 200 nM |
| B12 | ≤ 200 nM |
| B13 | ≤ 200 nM |
| B14 | ≤ 2000 nM |
| B15 | ≤ 50 nM |
| B16 | ≤ 2000 nM |

| Molecule | IC50 activity group, enzyme release assay |
| --- | --- |
| B17 | ≤ 2000 nM |
| B18 | ≤ 50 nM |
| B19 | ≤ 200 nM |
| B20 | ≤ 2000 nM |
| B21 | ≤ 50 nM |
| B22 | ≤ 200 nM |
| B23 | ≤ 200 nM |
| B24 | ≤ 2000 nM |
| B25 | ≤ 50 nM |
| B26 | ≤ 2000 nM |
| B27 | ≤ 200 nM |
| B28 | ≤ 2000 nM |
| B29 | ≤ 200 nM |
| B30 | ≤ 2000 nM |
| B31 | ≤ 2000 nM |
